The values below come from patent CN106146655A (UNIV NANCHANG, dated 2016).

Where no end group is shown, it is not given here.

This assay has as its target T1, 6×His标签 (组氨酸标签), 人工抗原6×His-OVA (also: covalently coupled to ovalbumin (OVA), chemistry and site not given here).
T1 construct: also called 多组氨酸标签; hexa组氨酸标签
T1 peptide: HHHHHH
Kind of assay: indirect phage-ELISA of phage-displayed VHH clones after three rounds of panning on 6×His-OVA.

B1: 针对His标签的单域重链抗体 (针对组氨酸标签的纳米抗体) (VHH)
VHH: QVQLVESGGGLVQAGGSLRLSCAVSGFTFSANAMSWVRQAPGKGPEWVSSINRGGASAEYADSVKGRFTISRDDAKNTLYLQMNSLKPEDTALYYCARGNYRGSYFNGPRTYWGRGTQVTVSP
notes: From an alpaca (Lama pacos) immune library; also called 抗His标签单域重链抗体
B1: the binding result is recorded as “binds”.
